Test results from paper doi:10.1101/2020.01.22.915298 (bioRxiv, 2020).

What was measured:
[1] = molecular target: Heparin-Binding EGF-like Growth Factor, recombinant (UniProt Q99075); assay: SPR
[2] = molecular target: diphtheria toxin receptor-binding fragment (lysosomal targeting moiety) (Corynebacterium diphtheriae, UniProt P00588 418-567); assay: SPR
diphtheria toxin receptor-binding fragment (lysosomal targeting moiety), sequence (P00588 418-567): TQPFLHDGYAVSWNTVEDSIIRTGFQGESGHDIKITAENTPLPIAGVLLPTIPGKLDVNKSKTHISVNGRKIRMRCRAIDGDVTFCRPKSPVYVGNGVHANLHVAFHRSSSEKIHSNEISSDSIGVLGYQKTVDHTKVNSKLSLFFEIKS

LTM-TPP1 (TPP1 with an N-terminal LTM fusion)
Kd [1]: 19.1 nM

B1: Heparin-Binding EGF-like Growth Factor, recombinant (receptor, UniProt Q99075 63-148, looked up)
chain: DLQEADLDLLRVTLSSKPQALATPNKEEHGKRKKKGKGLGKKRDPCLRKYKDFCIHGECKYVKELRAPSCICHPGYHGERCHGLSL
Kd [2]: 13.3 nM
